Results reported in article PMC3439491, “Characterization of an AGAMOUS-like MADS Box Protein, a Probable Constituent of Flowering and Fruit Ripening Regulatory System in Banana”.

Assays:
MA-MADS5 full length (A) [1] = biological target: T1, MA-MADS5 full length (A) (Musa acuminata (AAA group, Cavendish …, UniProt E9NW24 1-243)); experiment: EMSA; EMSA with 2 ug recombinant protein or 15 ug nuclear extract, buffer by reference to earlier work; circularization pre-incubation: 60 mM KCl, 8 mM HEPES pH 7.9; conditions: protein: recombinant, tags: 6xHis (pQE30), chain copies: 2, blunt
T1 sequence (E9NW24 entry or part of it): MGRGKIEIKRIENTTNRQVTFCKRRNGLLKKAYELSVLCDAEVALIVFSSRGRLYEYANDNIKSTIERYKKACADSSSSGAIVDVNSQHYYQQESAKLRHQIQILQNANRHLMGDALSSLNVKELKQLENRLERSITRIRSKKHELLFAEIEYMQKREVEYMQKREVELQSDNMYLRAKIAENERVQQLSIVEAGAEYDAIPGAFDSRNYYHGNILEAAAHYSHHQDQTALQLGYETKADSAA

MA-MADS5 E (I+K+C) = MA-MADS5 E (I+K+C) (Musa acuminata (AAA group, Cavendish …, UniProt E9NW24 61-243)); experiment: as above; conditions: protein: recombinant; tags: 6xHis (pQE30); chain copies: 2; label: 32P; blunt
MA-MADS5 E (I+K+C) (Musa acuminata, sequence (E9NW24 entry or part of it): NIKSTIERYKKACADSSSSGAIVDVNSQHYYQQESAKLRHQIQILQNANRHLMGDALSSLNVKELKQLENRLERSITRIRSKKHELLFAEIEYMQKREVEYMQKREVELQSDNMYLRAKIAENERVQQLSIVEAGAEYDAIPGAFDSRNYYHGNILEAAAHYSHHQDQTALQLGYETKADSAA

MA-MADS5 C (MADS+I) = MA-MADS5 C (MADS+I) (Musa acuminata (AAA group, Cavendish …, UniProt E9NW24 1-73)); experiment: as above; conditions: protein: recombinant; tags: 6xHis (pQE30); chain copies: 2; label: 32P; blunt
MA-MADS5 C (MADS+I) (Musa acuminata, sequence (E9NW24 entry or part of it): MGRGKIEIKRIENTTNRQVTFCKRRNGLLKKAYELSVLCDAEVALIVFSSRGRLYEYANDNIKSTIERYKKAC

MA-MADS5 G (C-terminal) = MA-MADS5 G (C-terminal) (Musa acuminata (AAA group, Cavendish …, UniProt E9NW24 184-243)); experiment: as above; conditions: protein: recombinant; tags: 6xHis (pQE30); label: 32P; blunt
MA-MADS5 G (C-terminal) (Musa acuminata, sequence (E9NW24 entry or part of it): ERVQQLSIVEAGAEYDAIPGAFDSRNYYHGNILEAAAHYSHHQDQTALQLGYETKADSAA

MA-MADS5 F (K+C) = MA-MADS5 F (K+C) (Musa acuminata (AAA group, Cavendish …, UniProt E9NW24 74-243)); experiment: as above; conditions: protein: recombinant; tags: 6xHis (pQE30); label: 32P; blunt
MA-MADS5 F (K+C) (Musa acuminata, sequence (E9NW24 entry or part of it): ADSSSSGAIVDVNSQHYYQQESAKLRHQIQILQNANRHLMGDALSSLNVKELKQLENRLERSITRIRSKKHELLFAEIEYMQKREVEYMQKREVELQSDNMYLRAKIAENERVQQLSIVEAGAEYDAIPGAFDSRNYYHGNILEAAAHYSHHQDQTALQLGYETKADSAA

MA-MADS5 D (MADS+I+K) = MA-MADS5 D (MADS+I+K) (Musa acuminata (AAA group, Cavendish …, UniProt E9NW24 1-183)); experiment: as above; conditions: protein: recombinant; tags: 6xHis (pQE30); chain copies: 2; label: 32P; blunt
MA-MADS5 D (MADS+I+K) (Musa acuminata, sequence (E9NW24 entry or part of it): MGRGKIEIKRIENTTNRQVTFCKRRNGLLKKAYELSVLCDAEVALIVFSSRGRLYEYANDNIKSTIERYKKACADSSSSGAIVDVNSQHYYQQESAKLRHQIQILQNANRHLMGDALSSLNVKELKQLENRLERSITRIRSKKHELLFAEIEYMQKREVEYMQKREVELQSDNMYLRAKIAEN

[2] = biological target: MA-MADS5 full length (A);MA-MADS5 C (MADS+I) (Musa acuminata (AAA group, Cavendish …, UniProt E9NW24;E9NW24 1-243;1-73, |)); experiment: EMSA; intermediate-mobility dimer; EMSA with 2 ug recombinant protein or 15 ug nuclear extract, buffer by reference to earlier work; circularization pre-incubation: 60 mM KCl, 8 mM HEPES pH 7.9; conditions: protein: recombinant;recombinant; tags: 6xHis (pQE30);6xHis (pQE30); copies: 1;1; label: 32P; blunt
[3] = biological target: MA-MADS5 full length (A);MA-MADS5 D (MADS+I+K) (Musa acuminata (AAA group, Cavendish …, UniProt E9NW24;E9NW24 1-243;1-183, |)); experiment: as above; conditions: protein: recombinant;recombinant; tags: 6xHis (pQE30);6xHis (pQE30); copies: 1;1; label: 32P; blunt
[4] = biological target: MA-MADS5 C (MADS+I);MA-MADS5 D (MADS+I+K) (Musa acuminata (AAA group, Cavendish …, UniProt E9NW24;E9NW24 1-73;1-183, |)); experiment: as above; conditions: protein: recombinant;recombinant; tags: 6xHis (pQE30);6xHis (pQE30); copies: 1;1; label: 32P; blunt
MA-MADS5 full length (A) [5] = biological target: T1, MA-MADS5 full length (A); experiment: EMSA; supershifted by anti-MA-MADS5; EMSA with 2 ug recombinant protein or 15 ug nuclear extract, buffer by reference to earlier work; circularization pre-incubation: 60 mM KCl, 8 mM HEPES pH 7.9; conditions: protein: recombinant; tags: 6xHis (pQE30); chain copies: 2; label: 32P 5' end; blunt

B1: CArG motif 4 (MA-ACS1) (dsDNA)
DNA 1: GATCATGCTTTTATTGTTTCTT
DNA 2: AAGAAACAATAAAAGCATGATC
B1: no binding (MA-MADS5 full length (A) [1]; label: 32P 5' end).

B2: CArG motif 6 (MA-ACO1) (dsDNA)
DNA 1: GAACGCCTATAAATTGCCTGGT
DNA 2: ACCAGGCAATTTATAGGCGTTC
B2: no binding (MA-MADS5 full length (A) [1]; label: 32P 5' end).

B3: CArG motif 5 (MA-ACO1) (dsDNA)
DNA 1: GAGGTTGGCAATTTGTCACTAC
DNA 2: GTAGTGACAAATTGCCAACCTC
B3: binds (MA-MADS5 full length (A) [1]; label: 32P 5' end).

B4: CArG motif 8 (MA-LEC) (dsDNA)
DNA 1: CTGGTATCTATTTATGAAATCT
DNA 2: AGATTTCATAAATAGATACCAG
B4: binds (MA-MADS5 full length (A) [1]; label: 32P 5' end).

B5: CArG motif 9 (MA-LEC) (dsDNA)
DNA 1: ATAAATTCTTAAAAGATCCTAG
DNA 2: CTAGGATCTTTTAAGAATTTAT
B5: no binding (MA-MADS5 full length (A) [1]; label: 32P 5' end).

B6: AGAMOUS element 1 CArG-box (A probe) (dsDNA)
DNA 1: ACTGAAGCTTTCCATTAATGGGAATGACGCACAATCCCAC
DNA 2: GTGGGATTGTGCGTCATTCCCATTAATGGAAAGCTTCAGT
B6: no binding (MA-MADS5 E (I+K+C)); binds (MA-MADS5 C (MADS+I)); no binding (MA-MADS5 G (C-terminal)). B6: no binding (MA-MADS5 F (K+C)); binds (MA-MADS5 full length (A) [1]; label: 32P); binds (MA-MADS5 D (MADS+I+K)). B6: binds [2]; binds [3]; binds [4].

B7: AGAMOUS element m1 (Am probe, CArGm) (dsDNA)
DNA 1: ACTGAAGCTTTCCATGCATGGGAATGACGCACAATCCCAC
DNA 2: GTGGGATTGTGCGTCATTCCCATGCATGGAAAGCTTCAGT
B7: no binding (MA-MADS5 full length (A) [1]; label: 32P or unlabeled).

B8: CArG motif 2 (MA-ACS1) (dsDNA)
DNA 1: ACACCCCATAAATTTGATCTTC
DNA 2: GAAGATCAAATTTATGGGGTGT
B8: binds (MA-MADS5 full length (A) [1]; label: 32P 5' end).

B9: CArG motif 1 (MA-SPS) (dsDNA)
DNA 1: TTGGATTCTTATATGTCACGAA
DNA 2: TTCGTGACATATAAGAATCCAA
B9: binds (MA-MADS5 full length (A) [5]).

B10: CArG motif 7 (MA-EXP) (dsDNA)
DNA 1: AAGCACGCATATTTGTGCTGCA
DNA 2: TGCAGCACAAATATGCGTGCTT
B10: binds (MA-MADS5 full length (A) [1]; label: 32P 5' end).

B11: CArG motif 3 (MA-ACS1) (dsDNA)
DNA 1: GGGTCAACTATAATTGCCTTCC
DNA 2: GGAAGGCAATTATAGTTGACCC
B11: no binding (MA-MADS5 full length (A) [1]; label: 32P 5' end).
